# B1: rSIFN-co: Recombinant super-compound interferon; amino acid sequence SEQ ID NO: 1 (same as INFERGEN), encoded by novel nucleotide sequence SEQ ID NO: 2 (protein)
# chain: MCDLPQTHSLGNRRALILLAQMRRISPFSCLKDRHDFGFPQEEFDGNQFQKAQAISVLHEMIQQTFNLFSTKDSSAAWDESLLEKFYTELYQQLNDLEACVIQEVGVEETPLMNVDSILAVKKYFQRITLYLTEKKYSPCAWEVVRAEIMRSFSLSTNLQERLRRKE
# modifications: Amino acid sequence of recombinant interferon
# Key:
# [1] = system: procaspase-3, cleaved caspase-3, procaspase-8, cleaved caspase-8, PARP; experiment: Apoptosis-related molecular markers by Western Blot; assay type: cell-based, human; settings: A549 and SW620 cells, 24 hr or 48 hr; interferons 10 mcg/ml
# Description: Thereafter, apoptosis-related molecular markers were monitored by Western Blot. The primary antibodies used were mouse monoclonal anti-beta-tubulin (1:2000, Cat #: CW0098A) and mouse monoclonal anti-GAPDH (1:2000, Cat #: CW0100A) (Kangwei Biotechnology, China); mouse monoclonal anti-PARP (1:1000, Cat #: sc-2007, Santa Cruz Biotechnology, Inc.); rabbit monoclonal anti-procaspase 3 (1:1000, Cat #: 9665), and rabbit polyclonal anti-cleaved caspase 3 (1:1000, Cat #: 9661) (Cell Signaling Technology, USA); goat polyclonal anti-procaspase 8 (1:1000, Cat #: sc-6136, Santa Cruz Biotechnology, Inc); rabbit monoclonal anti-cleaved caspase 8 (1:1000, Cat #: 9496) (Cell Signaling Technology, USA).
# [2] = system: Human Cervical Cancer Hela Xenografts; experiment: rSIFN-co on human cervical cancer Hela xenografts in nude mice; assay type: in vivo; settings: for TV(mm^3, mean ± SD) (D 0): day 0; for % Inhibition / T/C (%) / TV(mm^3, mean ± SD) (D 28): day 28
# Description: Then 1.5 mm^3 fragments were prepared for s.c. implantation into the animals.
# [3] = system: human hepatoma SMMC-7721 xenografts; experiment: rSIFN-co on human hepatoma SMMC-7721 xenografts in nude mice; settings: for TV(mm^3, mean ± SD) (D 0): day 0; for % Inhibition / T/C (%) / TV(mm^3, mean ± SD) (D 21): day 21
# Description: The test article was used without dilution. It was stored at 4° C. until thawed for injection.
# The animals used were 4-6 weeks old male BALB/cA nu/nu mice, weighing about 23±2 g, obtained from the Shanghai Institute of Materia Medica (Shanghai, P.R. China). […] Animals were housed 6 to a cage. They were ear-marked with ear hole punch identification. The room temperature was maintained at 25° C.±+1° C. Lighting was set at 12 hr on and 12 hr off. Food was provided ad libitum. City tap water, filtered with a 5 micrometer (μm) filter, was provided to the animals ad libitum via water bottles.
# The test article was administered in a volume of 0.05 ml-0.15 ml per mouse per treatment, depending on the group to which the animal was assigned. […] Normal saline was injected in a volume of 0.15 ml per mouse, which was used as vehicle control.
# Animals were assigned to treatment groups randomly. Initially, all animals were placed in one large animal cage. For assignment to the study, they were later separately housed, with 6 animals per cage per treatment group. Groups 1 and 2 are Control groups in which the animals were each administered the vehicle every other day after the first treatment. […] Tumor growth was monitored by measuring the length and width of each tumor twice a week during the course of the study. Each animal was also weighed twice a week during the course of the study.
# Before commencement of this study, the xenografts were passaged twice in nude mice. Under sterile conditions, well-grown tumors were cut into 1.5 mm^3 fragments and one such fragment was injected by trocar needle into the right flank of each study animal. […] Individual tumor size (length and width) was measured twice per week with microcalipers. Tumor volume (V) was calculated using the formula: V=(length×width^2)/2. Individual relative tumor volume (RTV) was calculated using the formula: RTV=Vt/V0, where Vt is the tumor volume on the day of measurement and V0 is the tumor volume on the day of first treatment. Therapeutic effect of the test article or control article was expressed in terms of T/C (%), using the formula: T/C (%)=(mean RTV of the treated group/mean RTV of the control group)×100%; and in terms of % Inhibition, using the formula: % Inhibition=100%−T/C %.
# [4] = system: Human Colon Cancer HT-29 Xenografts; experiment: rSIFN-co on human colon cancer HT-29 xenografts in nude mice; assay type: in vivo; settings: for TV(mm^3, mean ± SD) (D 0): day 0; for % Inhibition / T/C (%) / TV(mm^3, mean ± SD) (D 28): day 28
# [5] = system: phosphorylation of STAT1 (Tyr701), STAT2 (Tyr690), and STAT3 (Tyr705); experiment: p-STAT induction after B18R pre-incubation, Western blot; assay type: cell-based, human; settings: IFN 1 ng/ml, B18R 10 ng/ml, 30 min, compared to IFNα-2b
# different cancer cells = experiment: Cell viability, Am-Blue assay, 48 hr, statements over all cell lines; assay type: cell-based, human; settings: any of the cancer cell lines
# Description: Cell culture and reagents. human lung cancer cell lines (A549, H1299, H460, Calu-1), human liver cancer cell lines (SMMC-7721, Huh-7, CL-1), human cervical carcinoma cell line (Hela), human breast cancer cell line (MDA-MB-231), human pancreatic cancer cell line (PANC-1) and human colon cancer cell lines (SW620, HT29, SW480) were purchased from the Shanghai Cell Collection (Shanghai, China). The above cell lines were cultured in 5% CO2 at 37° C. in corresponding complete growth medium formulated by the Shanghai Cell Collection, with 10% heat-inactivated fetal bovine serum (Biochrom, Germany), supplemented with 4 mM glutamine, 50 U/ml penicillin and […] streptomycin.
# About 5×10^3 cells in 100 μl complete medium per well were plated in 96-well plates, incubated overnight, and then treated with IFN α-2b or rSIFN-co at concentrations of 100 μg/ml, 50 μg/ml, 25 μg/ml, 12.5 μg/ml, 6.25 μg/ml, 3.13 μg/ml, 1.56 μg/ml, 0.78 μg/ml, 0.39 μg/ml, and 0.20 μg/ml, respectively, for about 48 hr, at which time the cells were harvested for analysis. The cell viability rate was evaluated by SunBio Am-Blue assay kit (Cat #: SBAB8025, Shanghai SBO Medical Biotechnology Co., Ltd, Shanghai, China). […] After shaking the plates for 30 seconds, the absorbance for each well was read at both 570 nm and 595 nm by a Thermo Scientific Microplate Reader (Thermon Fisher Scientific, Inc., Lowell, Mass.). […]
# A549 tumor cells = experiment: Cell viability, MTT assay, 1-6 days; assay type: cell-based, human; settings: 10 μg/ml
# Description: The cell survival rate was evaluated in a standard MTT assay [3-(4,5-dimethylthiazol-2-yl)-2,5-diphenyltetrazolium bromide assay, Sigma, St. Louis, Mo.). For the assay, about 20 μl MTT (at 4 mg/ml) was added to each well. The cells were incubated at 37° C. for 4 hr. After that, the supernatant of each well was drawn off carefully and then an equal volume (150 microliter) of dimethyl sulfoxide (DMSO) was added to each well and mixed thoroughly on a shaker for 15 min. The absorbance from the plates was read at 595 nm with a Thermo Scientific Microplate Reader (Thermo Fisher Scientific Inc., Lowell, Mass.). The relative cell viability was calculated as follows: Cell viability=(Treated group(OD595) minus blank(OD595))/(Control group(OD595) minus blank(OD595))×100%.
# [6] = 0.05 mg/mouse i.t. every other day
# [7] = 0.10 mg/mouse i.t. every other day
# [8] = 0.15 mg/mouse i.t. every other day
# [9] = 0.05-0.15 mg/mouse i.t. every other day, 28 days
molecule,measurement,setting,value
B1,level of cleaved caspase-3 and cleaved caspase-8,[1],"neither of the interferons, IFN alpha-2b nor rSIFN-co, caused any reduction in the level of procaspase-3 or procaspase-8 or PARP, or induced any enhancement"
same,"level of procaspase-3, procaspase-8 and PARP",[1],"neither of the interferons, IFN alpha-2b nor rSIFN-co, caused any reduction"
same,"TV(mm^3, mean ± SD) (D 0)",[2]; [6],135 ± 26 mm^3
same,% Inhibition,[2]; [6],46.67%
same,T/C (%),[2]; [6],53.33%
same,"TV(mm^3, mean ± SD) (D 28)",[2]; [6],886 ± 232 mm^3
same,"TV(mm^3, mean ± SD) (D 0)",[2]; [7],135 ± 28 mm^3
same,% Inhibition,[2]; [7],46.67%
same,T/C (%),[2]; [7],53.33%
same,"TV(mm^3, mean ± SD) (D 28)",[2]; [7],865 ± 186 mm^3
same,"TV(mm^3, mean ± SD) (D 0)",[2]; [8],136 ± 25 mm^3
same,% Inhibition,[2]; [8],40.40%
same,T/C (%),[2]; [8],59.60%
same,"TV(mm^3, mean ± SD) (D 28)",[2]; [8],1025 ± 400 mm^3
same,"tolerability, signs of toxicity",[2]; [9],tolerated the rSIFN-co treatments with no signs of toxicity
same,change in average body weight,[2]; 28-day treatment period,Very little change in average body weight
same,"TV(mm^3, mean ± SD) (D 0)",[3]; [6],124 ± 26 mm^3
same,% Inhibition,[3]; [6],48.01%
same,T/C (%),[3]; [6],51.99%
same,"TV(mm^3, mean ± SD) (D 21)",[3]; [6],592 ± 139 mm^3
same,"TV(mm^3, mean ± SD) (D 0)",[3]; [7],124 ± 15 mm^3
same,% Inhibition,[3]; [7],52.20%
same,T/C (%),[3]; [7],47.80%
same,"TV(mm^3, mean ± SD) (D 21)",[3]; [7],573 ± 287 mm^3
same,"TV(mm^3, mean ± SD) (D 0)",[3]; [8],123 ± 20 mm^3
same,% Inhibition,[3]; [8],56.80%
same,T/C (%),[3]; [8],43.20%
same,"TV(mm^3, mean ± SD) (D 21)",[3]; [8],505 ± 226 mm^3
same,"TV(mm^3, mean ± SD) (D 0)",[4]; [6],130 ± 26 mm^3
same,% Inhibition,[4]; [6],61%
same,T/C (%),[4]; [6],39%
same,"TV(mm^3, mean ± SD) (D 28)",[4]; [6],416 ± 166 mm^3
same,"TV(mm^3, mean ± SD) (D 0)",[4]; [7],128 ± 39 mm^3
same,% Inhibition,[4]; [7],49.82%
same,T/C (%),[4]; [7],50.18%
same,"TV(mm^3, mean ± SD) (D 28)",[4]; [7],541 ± 196 mm^3
same,"TV(mm^3, mean ± SD) (D 0)",[4]; [8],131 ± 36 mm^3
same,% Inhibition,[4]; [8],46.37%
same,T/C (%),[4]; [8],53.63%
same,"TV(mm^3, mean ± SD) (D 28)",[4]; [8],570 ± 144 mm^3
same,"tolerability, signs of drug toxicity, changes in weight",[4]; [9],tolerated the tested dosages and showed no signs of drug toxicity and minimal changes in weight
same,induction of phosphorylation on STAT1/2/3 after B18R pre-incubation,[5]; A549 cells,greater induction of phosphorylation on STAT1/2/3
same,induction of phosphorylation on STAT1/2/3 after B18R pre-incubation,[5]; Hela cells,greater induction of phosphorylation on STAT1/2/3
same,cell viability at 100 mcg/ml,different cancer cells,cell viability could not be detected
same,cell viability over time (MTT),A549 tumor cells,also apparent for A549 cells for only about the first 3 days of treatment
